Columns and labels:
[1] = target: LRRK2-phosphorylated Rab10 (pRab10) (human (endogenous in HEK293T)) (UniProt P61026)
[2] = target: His6 Myosin Va GTD (1,464–1,855) (UniProt Q9Y4I1); experiment: MST; Monolith NT.115; RED-NHS labelled His6-MyoVa GTD fixed at 100 nM, 16 serial dilutions of the unlabelled Rab/Mst3 reaction mixture (+ATP phosphorylated 2 h at 27°C; -ATP control); 50 mM Hepes pH 7.5, 5% glycerol, 150 mM NaCl, 5 mM MgCl2, 0.1 mM TCEP, GTP, 6 μM BSA, 0.01% Tween-20; 30 min in the dark at 25°C; Mst3 kinase present
[3] = target: T1, His6 Myosin Va GTD (1,464–1,855) (UniProt Q9Y4I1 1464-1855, labeled with RED-NHS 2nd Generation (amine reactive) dye (NT-647)); experiment: MST; unphosphorylated Rab10
T1 chain: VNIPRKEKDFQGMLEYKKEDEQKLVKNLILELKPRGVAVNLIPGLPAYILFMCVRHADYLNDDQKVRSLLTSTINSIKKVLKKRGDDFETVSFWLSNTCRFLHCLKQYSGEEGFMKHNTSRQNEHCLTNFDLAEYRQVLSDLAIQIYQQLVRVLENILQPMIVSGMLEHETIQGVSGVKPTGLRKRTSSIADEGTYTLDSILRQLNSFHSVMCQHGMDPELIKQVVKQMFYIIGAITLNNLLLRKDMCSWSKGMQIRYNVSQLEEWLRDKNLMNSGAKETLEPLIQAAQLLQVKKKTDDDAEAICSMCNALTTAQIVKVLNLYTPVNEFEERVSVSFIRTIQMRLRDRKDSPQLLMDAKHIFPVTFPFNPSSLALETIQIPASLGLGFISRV

[4] = target: T2, His6 Myosin Va GTD (1,464–1,855) (UniProt Q9Y4I1 1464-1855, labeled with RED-NHS 2nd Generation (amine reactive) dye (NT-647)); experiment: MST; Monolith NT.115; RED-NHS labelled His6-MyoVa GTD fixed at 100 nM, 16 serial dilutions of the unlabelled Rab/Mst3 reaction mixture (+ATP phosphorylated 2 h at 27°C; -ATP control); 50 mM Hepes pH 7.5, 5% glycerol, 150 mM NaCl, 5 mM MgCl2, 0.1 mM TCEP, GTP, 6 μM BSA, 0.01% Tween-20; 30 min in the dark at 25°C; Mst3 kinase present; conditions: both partners purified
T2 construct: Myosin Va globular tail domain, residues 1,464-1,855; bacterial expression plasmid a gift from Amir Khan; purified as described by Berndsen et al 2019 and Waschbüsch et al 2020; the limits differ from those of the mCherry construct m3 (1,421-1,880, mouse); also called His6-MyoVa GTD; purified MyoVa GTD; source: E. coli BL21 (DE3 pLys), purified (Ni-NTA, Superdex-75)

[5] = target: T1, His6 Myosin Va GTD (1,464–1,855); experiment: MST; Rab8A phosphorylated by Mst3
[6] = target: T1, His6 Myosin Va GTD (1,464–1,855); experiment: MST; unphosphorylated Rab8A

Molecule: full-length MyoVa mCherry (natural protein)
- FLIP in HeLa cells expressing R1441G LRRK2: half-time of fluorescence loss of MyoVa mCherry over the pericentriolar region of interest (adjacent cytoplasm t1/2 = 83 s; retention ameliorated by MLi-2) [1]: 4.53 min

Molecule: MyoVa GTD-mCherry (1,421–1,880) (domain or fragment)
- FLIP in HeLa cells expressing R1441G LRRK2: half-time of fluorescence loss of GTD-mCherry over the region of interest against adjacent cytoplasm; dependent on kinase activity [1]: 107 s

Molecule: His6 Rab10-Q63L (1–181) phosphorylated in vitro by Mst3 (from UniProt P61026 1-181) (domain or fragment)
- Kd [2]: 0.475 µM

B1: His6 Rab10-Q63L (1–181), non-phosphorylated (domain or fragment)
chain: MAKKTYDLLFKLLLIGDSGVGKTCVLFRFSDDAFNTTFISTIGIDFKIKTVELQGKKIKLQIWDTAGLERFHTITTSYYRGAMGIMLVYDITNGKSFENISKWLRNIDEHANEDVERMLLGNKCDMDDKRVVPKGKGEQIAREHGIRFFETSAKANINIEKAFLTLAEDILRKTPVKEPNS
- Kd [3]: > 18 µM

B2: His6 Rab8A Q63L phosphorylated in vitro by Mst3 (natural protein)
chain: MAKTYDYLFKLLLIGDSGVGKTCVLFRFSEDAFNSTFISTIGIDFKIRTIELDGKRIKLQIWDTAGLERFRTITTAYYRGAMGIMLVYDITNEKSFDNIRNWIRNIEEHASADVEKMILGNKCDVNDKRQVSKERGEKLALDYGIKFMETSAKANINVENAFFTLARDIKAKMDKKLEGNSPQGSNQGVKITPDQQKRSSFFRCVLL
modifications: phosphorylated by Mst3 (residue not given)
- fold weaker binding than pRab10 [4]: ~14 fold
- Kd [5]: 6.6 µM

B3: His6 Rab8A Q63L, non-phosphorylated (natural protein)
chain: B2 chain
- Kd [6]: > 29 µM

From article PMC7994366, “LRRK2-phosphorylated Rab10 sequesters Myosin Va with RILPL2 during ciliogenesis blockade” (Life Science Alliance, 2021)
